Where a chain is given by its changes, count along the chain named. Starred links: 1 amine or outer side, 2 acyl side, 3 side chain; linkers in the order of their positions; H or OH if unused. Non-standard residues stand in square brackets, D forms with d. Groups on a side chain read outwards from the residue. No end group written: not given here. *: point of attachment. C18 diacid = O=C(O)CCCCCCCCCCCCCCCCC(=O)*; γGlu = O=C(O)[C@H](CCC(=O)[*:2])N[*:1]; εLys = N[C@@H](CCCCN[*:1])C(=O)[*:2]; Aib = CC(C)(N)C(=O)O; Ahx = NCCCCCC(=O)O
T1: human neuropeptide Y2 receptor (human, UniProt P49146 1-381)
T1 sequence (looked up): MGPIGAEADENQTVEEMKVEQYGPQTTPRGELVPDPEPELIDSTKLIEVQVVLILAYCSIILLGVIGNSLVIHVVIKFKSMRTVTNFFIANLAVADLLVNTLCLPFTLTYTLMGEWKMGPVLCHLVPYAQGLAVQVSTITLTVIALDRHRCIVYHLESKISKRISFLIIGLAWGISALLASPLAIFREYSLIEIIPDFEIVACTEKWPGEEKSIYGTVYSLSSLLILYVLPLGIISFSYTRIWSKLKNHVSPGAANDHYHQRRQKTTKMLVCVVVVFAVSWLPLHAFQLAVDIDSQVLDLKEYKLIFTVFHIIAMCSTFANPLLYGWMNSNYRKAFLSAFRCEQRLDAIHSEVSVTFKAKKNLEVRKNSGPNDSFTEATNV

T2: human GIP receptor (human, UniProt P48546 22-466)
T2 sequence (looked up): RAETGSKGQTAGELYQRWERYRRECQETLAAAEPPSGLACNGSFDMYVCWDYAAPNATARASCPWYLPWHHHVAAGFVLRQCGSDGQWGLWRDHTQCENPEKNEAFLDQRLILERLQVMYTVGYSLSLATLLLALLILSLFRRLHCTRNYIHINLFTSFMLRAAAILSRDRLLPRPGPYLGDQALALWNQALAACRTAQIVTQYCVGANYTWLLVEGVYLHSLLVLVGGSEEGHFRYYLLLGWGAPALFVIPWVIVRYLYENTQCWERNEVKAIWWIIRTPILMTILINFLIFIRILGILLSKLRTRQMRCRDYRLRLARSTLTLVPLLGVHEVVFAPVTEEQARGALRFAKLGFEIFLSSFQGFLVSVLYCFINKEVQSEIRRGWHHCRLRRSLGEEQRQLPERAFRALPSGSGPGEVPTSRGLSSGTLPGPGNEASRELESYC

B1: Compound 132 (peptide)
peptide: YXEGTFTSDYSIXLEKQAQXAFVEWLIKGGPSSGASIRHYYNWLTRQRY
modifications: Aib at 2, 13, 20; K28 side chain: C20DA-gGlu-gGlu-gGlu-gGlu-gGlu-gGlu-eLys; C-terminal NH2
B2: Compound 133 (peptide)
peptide: B1 peptide with I37L, Y41X
modifications: Aib at 2, 13, 20; Tle at 41; K28 side chain: C20DA-gGlu-gGlu-gGlu-gGlu-gGlu-gGlu-eLys; C-terminal NH2
B3: Compound 135 (peptide)
peptide: B1 peptide with W25Y, I37L
modifications: Aib at 2, 13, 20; K28 side chain: C20DA-gGlu-gGlu-gGlu-gGlu-gGlu-gGlu-eLys; C-terminal NH2
B4: Compound 140 (peptide)
peptide: B1 peptide with G34P, I37L
modifications: Aib at 2, 13, 20; K28 side chain: C18DA-gGlu-gGlu-gGlu-gGlu-gGlu-OEG-OEG; C-terminal NH2
B5: Compound 137 (peptide)
peptide: B1 peptide with I37L, L44X
modifications: Aib at 2, 13, 20; Tle at 44; K28 side chain: C20DA-gGlu-gGlu-gGlu-gGlu-gGlu-gGlu-eLys; C-terminal NH2
B6: Compound 134 (peptide)
peptide: B1 peptide with S33E, A35Q
modifications: Aib at 2, 13, 20; K28 side chain: C20DA-gGlu-gGlu-gGlu-gGlu-gGlu-gGlu-eLys; C-terminal NH2
B7: Compound 136 (peptide)
peptide: B1 peptide with Q17A, I37L
modifications: Aib at 2, 13, 20; K28 side chain: C20DA-gGlu-gGlu-gGlu-gGlu-gGlu-gGlu-eLys; C-terminal NH2

How the values were obtained:
Test in all cases: cell-based or functional assay
[1] = target: T1, human neuropeptide Y2 receptor
human GLP-1 receptor = human GLP-1 receptor (human, UniProt P43220 24-463)
human GIP receptor = target: T2, human GIP receptor

Binder	EC50 CreLuc hNPY2R 0.5% hP [1]	EC50 CreLuc hNPY2R 100% hP [1]	EC50 CreLuc hGLP1R 0.5% hP (human GLP-1 receptor)	EC50 CreLuc hGLP1R 100% hP (human GLP-1 receptor)	EC50 CreLuc hGIPR 0.5% hP (human GIP receptor)	EC50 CreLuc hGIPR 100% hP (human GIP receptor)
Y[Aib]EGTFTSDYSI[Aib]LEKQAQ[Aib]AFVQWLIK([Ahx-γGlu-γGlu-γGlu-γGlu-γGlu-γGlu-C18 diacid])GGPSSGASLRHYYNWLTRQRY-NH2 [Compound 139]	18.3 nM	43.2 nM	0.07 nM	1.62 nM	0.22 nM	1.04 nM
Y[Aib]EGTFTSDYSI[Aib]LEKQAE[Aib]AFVQWLIK([εLys-γGlu-γGlu-γGlu-γGlu-γGlu-C18 diacid])GGPSEGASLRHYYNWLTRQRY-NH2 [Compound 138]	18.3 nM	28.4 nM	0.19 nM	5.09 nM	0.13 nM	0.81 nM
B1	11.3 nM	45.4 nM	0.14 nM	3.76 nM	0.22 nM	2.07 nM
B2	14.1 nM	41.4 nM	0.16 nM	3.01 nM	0.48 nM	2.28 nM
B3	8.4 nM	21.5 nM	0.24 nM	2.3 nM	0.11 nM	1.07 nM
B4	12.4 nM	45.9 nM	0.12 nM	3.11 nM	0.22 nM	1.2 nM
B5	60.2 nM	93 nM	0.12 nM	2.22 nM	0.28 nM	1.5 nM
B6	10.1 nM	40 nM	0.1 nM	3.94 nM	0.09 nM	0.83 nM
B7	15.1 nM	64.7 nM	0.32 nM	4.19 nM	0.31 nM	2.03 nM
